Data on twelve molecules can be found in patent publication EP4792830A2 (Pfizer Inc., dated 2026).

As usually defined, the Kd is the concentration at which binding is half-saturated. As a reminder, the EC50 is the concentration giving half of the maximal effect. Read a high EC50 as a less potent agent. As a reminder, the koff is the first-order rate constant of dissociation. A low value points to slow dissociation. One may read the kon as a measure of how fast the partners come together. Higher therefore signals faster complex formation.

B1: TFPI-106 (antibody, human IgG1, lambda)
heavy: not shown
light: QSVLTQPPSVSGAPGQRVTISCTGSSSNIGAGYDVHWYQQLPGTAPKLLIYGNSNRPSGVPDRFSGSKSGTSASLAITGLQAEDEADYYCQSYDSSLSGSGVFGGGTKLTVLGQPKAAPSVTLFPPSSEELQANKATLVCLISDFYPGAVTVAWKADSSPVKAGVETTTPSKQSNNKYAASSYLSLTPEQWKSHRSYSCQVTHEGSTVEKTVAPTECS
notes: IgG1-3M
B2: TFPI-118 (antibody, human IgG1, lambda, V domains shown)
VH: EVQLVESGGGLVQPGRSLRLSCAVSGLTIDNYAMQWVRQAPGKGLEWVSGISGNSRSIGYADSVKGRFTISRDNAKNSLYLQMNSLRAEDTALYYCAIFLHESDYWGQGTLVTVSS
VL: QSVLTQPPSASGTPGQRVTISCSGSTSNIGTMYVHWYQQLPGTAPKLLIYRNNHRPSGVPDRFSGSKSGTSASLAISGLRSEDEADYYCLAWDDTLRAYVFGTGTKVTVLG
notes: Germlined variant of TFPI-24: VL of TFPI-113 paired with VH of TFPI-108
B3: hz4F36 (antibody, human IgG4 S228P, kappa, V domains shown)
VH: EVQLVESGGGLVKPGGSLRLSCAASGFTFSNYAMSWVRQTPEKRLEWVATISRSGSYSYFPDSVQGRFTISRDNAKNSLYLQMNSLRAEDTAVYYCARLGGYDEGDAMDSWGQGTTVTVSS
VL: DIVMTQTPLSLSVTPGQPASISCKSSQSLLESDGKTYLNWYLQKPGQSPQLLIYLVSILDSGVPDRFSGSGSGTDFTLKISRVEAEDVGVYYCLQATHFPQTFGGGTKVEIKR
notes: also called Novo2021; Anti-TFPI-4F36
B4: 4D8-Vk1.0 x VH1.0 (antibody, human IgG1, kappa, V domains shown)
VH: EVQLVESGGGLVQPGGSLRLSCAASGYTFTDYNLDWVRQAPGKGLEWVADINPINGATLYNQKFKGRFTISRDNAKNSLYLQMNSLRAEDTAVYYCARYYGDYDAMDYWGQGTLVTVSS
VL: DIQMTQSPSSLSASVGDRVTITCKASQDVHTAVAWYQQKPGKAPKLLIYWASTRHTGVPSRFSGSGSGTDFTLTISSLQPEDFATYYCQQHYTTPYTFGQGTKLEIKR
notes: Humanized 4D8 variant
B5: 4D8-Vk1.1 x VH1.0 (antibody, human IgG1, kappa, V domains shown)
VH: B4 VH
VL: B4 VL with F71Y
notes: Humanized 4D8 variant
B6: 4D8-Vk1.1 x VH1.2 (antibody, human IgG1, kappa, V domains shown)
VH: B4 VH with A49G
VL: B4 VL with F71Y
notes: Humanized 4D8 variant
B7: 4D8-Vk1.0 x VH1.4 (antibody, human IgG1, kappa, V domains shown)
VH: B4 VH with N74Q
VL: B4 VL
notes: Humanized 4D8 variant
B8: 4D8-Vk1.0 x VH1.2 (antibody, human IgG1, kappa, V domains shown)
VH: B4 VH with A49G
VL: B4 VL
notes: Humanized 4D8 variant
B9: 4D8-Vk1.0 x VH1.3 (antibody, human IgG1, kappa, V domains shown)
VH: B4 VH with F68A
VL: B4 VL
notes: Humanized 4D8 variant
B10: 4D8-Vk1.1 x VH1.3 (antibody, human IgG1, kappa, V domains shown)
VH: B4 VH with F68A
VL: B4 VL with F71Y
notes: Humanized 4D8 variant
B11: 4D8-Vk1.1 x VH1.1 (antibody, human IgG1, kappa, V domains shown)
VH: B4 VH with A49G, F68A, R72V, N74Q, L79A
VL: B4 VL with F71Y
notes: Humanized 4D8 variant
B12: 4D8-Vk1.0 x VH1.1 (antibody, human IgG1, kappa, V domains shown)
VH: B4 VH with A49G, F68A, R72V, N74Q, L79A
VL: B4 VL
notes: Humanized 4D8 variant

Residue numbers refer to the chain shown, from its start.

For one test, the target named is T1, rabTFPI K1K2 (rabbit, limits assumed).
T1 construct: also called Rabbit TFPI K1K2
T1 chain: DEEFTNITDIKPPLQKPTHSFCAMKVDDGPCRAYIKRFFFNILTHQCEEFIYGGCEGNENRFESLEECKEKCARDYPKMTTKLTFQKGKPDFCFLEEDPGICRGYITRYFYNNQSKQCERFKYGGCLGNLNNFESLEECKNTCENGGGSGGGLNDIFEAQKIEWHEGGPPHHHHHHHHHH
The test is described as follows: SPR (summary table).
With B1, the Kd is 4.25 nM.
The same measure, in the same setting: the result for B2 reads 5.79 nM; that for B3, 1.81 nM.

In a further test the target is T1, rabTFPI K1K2. The test can be described thus: ELISA, TFPI on streptavidin plate.
For the molecule B4, a half-maximal effect (EC50) was put at 0.0785 nM.
The same measure, in the same setting: the result for B5 reads 0.0451 nM; that for B6, 0.0783 nM.
The same measure, in the same setting: the result for B7 reads 0.0426 nM; that for B8, 0.0422 nM; that for B9, 0.0556 nM.
In turn, B10 gave an EC50 of 0.0511 nM.
Consider B11, for which the EC50 amounted to 0.0788 nM. Compared with the last molecule, the EC50 is about 1.5-fold higher.
The same measure, in the same setting: the result for B12 reads 0.0705 nM.

For the next test, the target named is T1, rabTFPI K1K2. The test can be described thus: SPR, antibody ligand, TFPI analyte.
Regarding B1, the Kd turned out to be 4.25 nM.
As for B2, binding was put at a Kd of 5.79 nM.
As for B3, binding was put at a Kd of 1.81 nM, the koff was determined as 0.0076 s⁻¹ and the kon stood at 4.2e+06 M⁻¹ s⁻¹.
